Assay results as given in publication PMC8041999 (2021).

B1: FLAG-tagged KIR2DL3, full-length, wild type, on 293T cells [human] / HLA-C*03:04-GL9 tetramer (phycoerythrin-conjugated) [modified: biotin (enzymatically, with biotin ligase)] [human] (parent complex)
chain 1: HEGVHRKPSLLAHPGPLVKSEETVILQCWSDVRFQHFLLHREGKFKDTLHLIGEHHDGVSKANFSIGPMMQDLAGTYRCYGSVTHSPYQLSAPSDPLDIVITGLYEKPSLSAQPGPTVLAGESVTLSCSSRSSYDMYHLSREGEAHERRFSAGPKVNGTFQADFPLGPATHGGTYRCFGSFRDSPYEWSNSSDPLLVSVTGNPSNSWPSPTEPSSETGNPRHLHVLIGTSVVIILFILLLFFLLHRWCCNKKNAVVMDQEPAGNRTVNREDSDEQDPQEVTYAQLNHCVFTQRKITRPSQRPKTPPTDIIVYTELPNAEP
chain 2: not shown
chain 3: not shown
chain 4: GAVDPLLAL
B2: FLAG-tagged KIR2DL2, full-length, wild type, on 293T cells [human] / HLA-C*03:04-GL9 tetramer (phycoerythrin-conjugated) [modified: biotin (enzymatically, with biotin ligase)] [human] (parent complex)
chain 1: HEGVHRKPSLLAHPGRLVKSEETVILQCWSDVRFEHFLLHREGKFKDTLHLIGEHHDGVSKANFSIGPMMQDLAGTYRCYGSVTHSPYQLSAPSDPLDIVITGLYEKPSLSAQPGPTVLAGESVTLSCSSRSSYDMYHLSREGEAHECRFSAGPKVNGTFQADFPLGPATHGGTYRCFGSFRDSPYEWSNSSDPLLVSVIGNPSNSWPSPTEPSSKTGNPRHLHILIGTSVVIILFILLFFLLHRWCSNKKNAAVMDQESAGNRTANSEDSDEQDPQEVTYTQLNHCVFTQRKITRPSQRPKTPPTDIIVYAELPNAESRSKVVSCP
chain 2: not shown
chain 3: not shown
chain 4: GAVDPLLAL
B3: FLAG-tagged KIR2DL2, full-length, wild type, on 293T cells [human] / HLA-C*07:02-RL9 tetramer (phycoerythrin-conjugated) [modified: biotin (enzymatically, with biotin ligase)] [human | not stated] (parent complex)
chain 1: B2 chain 1
chain 2: not shown
chain 3: not shown
chain 4: RYRPGTVAL
B4: FLAG-tagged KIR2DL3, full-length, wild type, on 293T cells [human] / HLA-C*07:02-RL9 tetramer (phycoerythrin-conjugated) [modified: biotin (enzymatically, with biotin ligase)] [human | not stated] (parent complex)
chain 1: B1 chain 1
chain 2: not shown
chain 3: not shown
chain 4: RYRPGTVAL

Variants of: B1
Assay: flow cytometry, HLA tetramer staining of transfected 293T cells; percentage tetramer+ normalised to percentage FLAG+; read off a plot

Row | ratio to parent | Variant
1 | ~0.1 | chain 1 D135A
2 | ~1 | chain 1 D72A
3 | ~0.92 | chain 1 E21A
4 | ~0.04 | chain 1 F45A
5 | ~0.6 | chain 1 K44A
6 | ~1.2 | chain 1 S132A
7 | ~0.57 | chain 1 S133A
8 | ~1.1 | chain 1 M70A
9 | ~0.82 | chain 1 E106A
10 | ~0.05 | chain 1 D183A
11 | ~0.05 | chain 1 L104A
12 | ~0.02 | chain 1 Y105A

Variants of: B2
Assay: as above

Row | ratio to parent | Variant
13 | ~0.88 | chain 1 E21A
14 | ~1.1 | chain 1 D72A
15 | ~0.02 | chain 1 L104A
16 | ~1 | chain 1 S132A
17 | ~0.17 | chain 1 S133A
18 | ~0.93 | chain 1 E106A
19 | ~0.02 | chain 1 D183A
20 | ~0.01 | chain 1 Y105A
21 | ~1 | chain 1 M70A
22 | ~0.03 | chain 1 D135A
23 | ~0.95 | chain 1 K44A
24 | ~0.03 | chain 1 F45A

Variants of: B3
Assay: as above

Row | ratio to parent | Variant
25 | ~1 | chain 1 S132A
26 | ~0.01 | chain 1 Y105A
27 | ~0.92 | chain 1 M70A
28 | ~1 | chain 1 E21A
29 | ~1.1 | chain 1 F45A
30 | ~1.2 | chain 1 D135A
31 | ~1.2 | chain 1 E106A
32 | ~0.67 | chain 1 L104A
33 | ~1.1 | chain 1 K44A
34 | ~0.67 | chain 1 D183A
35 | ~1.2 | chain 1 S133A
36 | ~1.3 | chain 1 D72A

Variants of: B4
Assay: as above

Row | ratio to parent | Variant
37 | ~1.1 | chain 1 S132A
38 | ~1.1 | chain 1 D72A
39 | ~0.72 | chain 1 F45A
40 | ~0.4 | chain 1 L104A
41 | ~0.33 | chain 1 D183A
42 | ~1.2 | chain 1 S133A
43 | ~0.02 | chain 1 Y105A
44 | ~0.57 | chain 1 D135A
45 | ~1.3 | chain 1 M70A
46 | ~0.9 | chain 1 K44A
47 | ~0.85 | chain 1 E106A
48 | ~0.97 | chain 1 E21A
